Series [1] deals with the molecule itself. The series is described as follows: single-molecule fluorescence intensity distributions (TIRF) with labelling efficiencies from SEC absorption; intensity distributions of KIF5B∆-mCherry compared with mCherry-TRAK1 in the motility experiments; labelling efficiencies about 22% and about 88%.
Series [2] has as its target T1, mCherry-labelled full-length TRAK1 (human (by the printed accession …, UniProt Q9UPV9-1 1-953)).
T1 construct: TRAK1 (trafficking kinesin protein 1), cDNA KIAA1042 from the Kazusa DNA Research Institute; 953 residues by the printed region 636-953; also called mCherry-TRAK1; trafficking kinesin protein 1; source: HEK293T cells, transfected, purified (StrepTactinXT, eluted by TEV cleavage of the N-terminal tag, Superose 6 SEC); not shown: mCherry, N-terminal, kept; TwinStrep-FLAG-Halo, N-terminal, cleaved
T1 sequence (looked up): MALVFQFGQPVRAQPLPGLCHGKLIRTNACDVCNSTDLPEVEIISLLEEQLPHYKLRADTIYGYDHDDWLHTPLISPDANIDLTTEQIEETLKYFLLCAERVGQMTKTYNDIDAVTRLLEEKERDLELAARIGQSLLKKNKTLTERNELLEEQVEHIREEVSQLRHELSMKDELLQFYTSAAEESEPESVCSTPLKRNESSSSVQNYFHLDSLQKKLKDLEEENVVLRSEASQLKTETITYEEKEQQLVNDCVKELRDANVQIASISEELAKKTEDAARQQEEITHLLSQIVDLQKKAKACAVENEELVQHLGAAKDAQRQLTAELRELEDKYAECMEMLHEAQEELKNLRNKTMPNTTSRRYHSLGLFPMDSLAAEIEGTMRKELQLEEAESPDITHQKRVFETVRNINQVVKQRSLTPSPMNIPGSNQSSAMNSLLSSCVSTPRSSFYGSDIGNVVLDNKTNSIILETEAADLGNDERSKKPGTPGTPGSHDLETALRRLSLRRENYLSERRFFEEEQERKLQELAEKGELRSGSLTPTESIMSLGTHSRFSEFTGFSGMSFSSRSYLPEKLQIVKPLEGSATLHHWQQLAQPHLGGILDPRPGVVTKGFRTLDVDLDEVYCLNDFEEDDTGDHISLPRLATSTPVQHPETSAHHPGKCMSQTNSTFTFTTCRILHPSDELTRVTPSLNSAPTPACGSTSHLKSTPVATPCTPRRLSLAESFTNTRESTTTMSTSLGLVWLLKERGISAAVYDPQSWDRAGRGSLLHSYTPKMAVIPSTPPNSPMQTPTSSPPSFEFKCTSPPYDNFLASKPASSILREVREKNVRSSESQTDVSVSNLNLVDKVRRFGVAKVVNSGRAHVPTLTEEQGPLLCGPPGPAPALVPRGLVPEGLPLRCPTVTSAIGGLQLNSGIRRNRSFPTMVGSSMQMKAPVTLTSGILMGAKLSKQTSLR
Put plainly: single-molecule TIRF microscopy, two-colour co-movement on immobilised microtubules; KIF5B construct and 175 nM TRAK1 construct pre-incubated 10 min on ice, flushed onto bare immobilised microtubules in motility buffer with 1 mM Mg-ATP; room temperature; for the complexes traces of the mCherry-TRAK1 channel analysed. Conditions: both partners purified.

Series [3] addresses T1, mCherry-labelled full-length TRAK1. The series is described as follows: TIRF microscopy, reconstituted transport of mitochondria on immobilised microtubules; 2 nM unlabeled KIF5B∆, 100 nM mCherry-TRAK1 and 10 µg isolated mitochondria-GFP (4T1 cells) pre-incubated on ice, flushed onto immobilised microtubules; room temperature. The settings on record: both partners purified.

B1: GFP-labelled KIF5B∆ (KIF5B without the inhibitory domain, amino acids 906-963) (domain or fragment, human, UniProt P33176 1-905, looked up)
chain: MADLAECNIKVMCRFRPLNESEVNRGDKYIAKFQGEDTVVIASKPYAFDRVFQSSTSQEQVYNDCAKKIVKDVLEGYNGTIFAYGQTSSGKTHTMEGKLHDPEGMGIIPRIVQDIFNYIYSMDENLEFHIKVSYFEIYLDKIRDLLDVSKTNLSVHEDKNRVPYVKGCTERFVCSPDEVMDTIDEGKSNRHVAVTNMNEHSSRSHSIFLINVKQENTQTEQKLSGKLYLVDLAGSEKVSKTGAEGAVLDEAKNINKSLSALGNVISALAEGSTYVPYRDSKMTRILQDSLGGNCRTTIVICCSPSSYNESETKSTLLFGQRAKTIKNTVCVNVELTAEQWKKKYEKEKEKNKILRNTIQWLENELNRWRNGETVPIDEQFDKEKANLEAFTVDKDITLTNDKPATAIGVIGNFTDAERRKCEEEIAKLYKQLDDKDEEINQQSQLVEKLKTQMLDQEELLASTRRDQDNMQAELNRLQAENDASKEEVKEVLQALEELAVNYDQKSQEVEDKTKEYELLSDELNQKSATLASIDAELQKLKEMTNHQKKRAAEMMASLLKDLAEIGIAVGNNDVKQPEGTGMIDEEFTVARLYISKMKSEVKTMVKRCKQLESTQTESNKKMEENEKELAACQLRISQHEAKIKSLTEYLQNVEQKKRQLEESVDALSEELVQLRAQEKVHEMEKEHLNKVQTANEVKQAVEQQIQSHRETHQKQISSLRDEVEAKAKLITDLQDQNQKMMLEQERLRVEHEKLKATDQEKSRKLHELTVMQDRREQARQDLKGLEETVAKELQTLHNLRKLFVQDLATRVKKSAEIDSDDTGGSAAQKQKISFLENNLEQLTKVHKQLVRDNADLRCELPKLEKRLRATAERVKALESALKEAKENASRDRKRYQQEVDRIKEA
notes: Constitutively active construct; also called KIF5B∆-GFP; source: SF9 insect cells (FlexiBAC baculovirus), purified (Ni-NTA, 6xHis cleaved by 3C PreScission protease, second Ni-NTA); not shown: GFP, C-terminal, kept; 6xHis, C-terminal, cleaved
The term stoichiometry N denotes the number of molecules, sites or subunits per partner or assembly. Turning to B1, in series [1], the “stoichiometry N” value came to 2. Also, the binding result in series [2] is “binds”.

B2: unlabelled KIF5B∆ (domain or fragment, human, UniProt P33176 1-905, looked up)
chain: B1 chain
notes: KIF5B, kinesin-1 heavy chain, human, amino acids 1-905; The methods describe only vectors with a C-terminal fluorescent tag; also called recombinant KIF5B∆; source: SF9 insect cells (all KIF5B constructs), purified
As for B2, the binding result in series [3] is recorded as “binds”.

The values above are taken from paper PMC7305210, “Mitochondria-adaptor TRAK1 promotes kinesin-1 driven transport in crowded environments” (Nature Communications, 2020).
